Molecular target: the molecule itself
Experiment: SEC

B1: wild-type hamster PrP 121–231 (domain or fragment)
chain: not shown
Question: With B1 as the protein, how does the “stoichiometry N” value read?
Answer: The value was 8.
